{
  "source": "paper PMC5983026",
  "about": "“Intraring allostery controls the function and assembly of a hetero-oligomeric class II chaperonin” (The FASEB Journal, 2018)",
  "key": {"[1]": {"substrate": "Nc1ncnc2c1ncn2[C@@H]1O[C@H](COP(=O)(O)OP(=O)(O)OP(=O)(O)O)[C@@H](O)[C@H]1O", "experiment": "steady-state ATPase, malachite green phosphate release", "assay_type": "biochemical, Thermoplasma acidophilum", "conditions": "55 °C, pH 7.5, 25 mM Tris-HCl, 50 mM KCl, 20 mM MgCl2, 50 mM NaCl", "text": "steady-state ATPase, malachite green phosphate release on Ta thermosome α8β8"}, "[2]": {"target": "the molecule itself", "experiment": "SEC + native gel or EMSA; α (intraloop His6) and β co-expressed in E. coli; complexes purified to homogeneity as in ref. 29; integrity by Superose 6 Increase SEC (main peak ≅950 kDa) and native-PAGE 3–12% (≅1 MDa); subunit composition by Tris-Acetate SDS-PAGE (7%) of the purified proteins"}, "[3]": {"target": "the molecule itself", "experiment": "SEC + native gel or EMSA; α subunit expressed in E. coli in the absence of the β; purified α16 complex; integrity by SEC and native PAGE"}, "[4]": {"substrate": "Nc1ncnc2c1ncn2[C@@H]1O[C@H](COP(=O)(O)OP(=O)(O)OP(=O)(O)O)[C@@H](O)[C@H]1O", "experiment": "steady-state ATPase, malachite green phosphate release", "assay_type": "biochemical, Thermoplasma acidophilum", "conditions": "single transition, 55 °C, pH 7.5, 25 mM Tris-HCl, 50 mM KCl, 20 mM MgCl2, 50 mM NaCl", "text": "steady-state ATPase, malachite green phosphate release on WTα16 (α-only thermosome)"}, "[5]": {"conditions": "single transition, hydrolysis assigned to the WT beta subunits"}, "[6]": {"conditions": "single transition, hydrolysis on the WT alpha subunits only"}},
  "data": [
    {"protein": "Ta thermosome α8β8 (Thermoplasma acidophilum DSM 1728; P48424:D94A) (protein, recombinant co-expression in E. coli BL21(DE3) Codon Plus-RIL, construct aK144HTTherm, intraloop His6-tag in each alpha subunit (kept), hexadecamer isolated on Superose 6, about 1 MDa) chain 1: MMTGQVPILVLKEGTQREQGKNAQRNNIEAAKAIADAVRTTLGPKGMDKMLVDSIGDIIISNDGATILKEMDVEHPTAKMIVEVSKAQDTAVGAGTTTAVVLSGELLKQAETLLDQGVHPTVISNGYRLAVNEARKIIDEIAEKSTDDATLRKIALTALSGKNTGLSNDFLADLVVKAVNAVAEVRDGKTIVDTANIKVDKKNGGSVNDTQFISGIVIDKEKVHSKMPDVVKNAKIALIDSALEIKKTEIEAKVQISDPSKIQDFLNQETNTFKQMVEKIKKSGANVVLCQKGIDDVAQHYLAKEGIYAVRRVKKSDMEKLAKATGAKIVTDLDDLTPSVLGEAETVEERKIGDDRMTFVMGCKNPKAVSILIRGGTDHVVSEVERALNDAIRVVAITKEDGKFLWGGGAVEAELAMRLAKYANSVGGREQLAIEAFAKALEIIPRTLAENAGIDPINTLIKLKAEHEKGRISVGVDLDNNGVGDMKAKGVVDPLRVKTHALESAVEVATMILRIDDVIASKKSTPPSGQGGQGQGMPGGGMPEY chain 2: MIAGQPIFILKEGTKRESGKDAMKENIEAAIAISNSVRSSLGPRGMDKMLVDSLGDIVITNDGVTILKEMDVEHPAAKMMVEVSKTQDSFVGDGTTTAVIIAGGLLQQAQGLINQNVHPTVISEGYRMASEEAKRVIDEISTKIGADEKALLLKMAQTSLNSKSASVAKDKLAEISYEAVKSVAELRDGKYYVDFDNIQVVKKQGGAIDDTQLINGIIVDKEKVHPGMPDVVKDAKIALLDAPLEIKKPEFDTNLRIEDPSMIQKFLAQEENMLREMVDKIKSVGANVVITQKGIDDMAQHYLSRAGIYAVRRVKKSDMDKLAKATGASIVSTIDEISSSDLGTAERVEQVKVGEDYMTFVTGCKNPKAVSILVRGETEHVVDEMERSITDSLHVVASALEDGAYAAGGGATAAEIAFRLRSYAQKIGGRQQLAIEKFADAIEEIPRALAENAGLDPIDILLKLRAEHAKGNKTYGINVFTGEIEDMVKNGVIEPIRVGKQAIESATEAAIMILRIDDVIATKSSSSSSNPPKSGSSSESSED", "values": [
      {"measurement": "Km", "setting": "[1]; [5]", "value": "82 ± 8.7", "unit": "µM"},
      {"measurement": "kcat", "setting": "[1]; [5]", "value": "2.4 ± 0.09 mol ATP/(mol active sites × min)"}
    ]},
    {"protein": "Ta thermosome α8β8 (Thermoplasma acidophilum DSM 1728; P48425:D93K) (protein, recombinant co-expression in E. coli BL21(DE3) Codon Plus-RIL, construct aK144HTTherm, intraloop His6-tag in each alpha subunit (kept), hexadecamer isolated on Superose 6, about 1 MDa) chain 1: MMTGQVPILVLKEGTQREQGKNAQRNNIEAAKAIADAVRTTLGPKGMDKMLVDSIGDIIISNDGATILKEMDVEHPTAKMIVEVSKAQDTAVGDGTTTAVVLSGELLKQAETLLDQGVHPTVISNGYRLAVNEARKIIDEIAEKSTDDATLRKIALTALSGKNTGLSNDFLADLVVKAVNAVAEVRDGKTIVDTANIKVDKKNGGSVNDTQFISGIVIDKEKVHSKMPDVVKNAKIALIDSALEIKKTEIEAKVQISDPSKIQDFLNQETNTFKQMVEKIKKSGANVVLCQKGIDDVAQHYLAKEGIYAVRRVKKSDMEKLAKATGAKIVTDLDDLTPSVLGEAETVEERKIGDDRMTFVMGCKNPKAVSILIRGGTDHVVSEVERALNDAIRVVAITKEDGKFLWGGGAVEAELAMRLAKYANSVGGREQLAIEAFAKALEIIPRTLAENAGIDPINTLIKLKAEHEKGRISVGVDLDNNGVGDMKAKGVVDPLRVKTHALESAVEVATMILRIDDVIASKKSTPPSGQGGQGQGMPGGGMPEY chain 2: MIAGQPIFILKEGTKRESGKDAMKENIEAAIAISNSVRSSLGPRGMDKMLVDSLGDIVITNDGVTILKEMDVEHPAAKMMVEVSKTQDSFVGKGTTTAVIIAGGLLQQAQGLINQNVHPTVISEGYRMASEEAKRVIDEISTKIGADEKALLLKMAQTSLNSKSASVAKDKLAEISYEAVKSVAELRDGKYYVDFDNIQVVKKQGGAIDDTQLINGIIVDKEKVHPGMPDVVKDAKIALLDAPLEIKKPEFDTNLRIEDPSMIQKFLAQEENMLREMVDKIKSVGANVVITQKGIDDMAQHYLSRAGIYAVRRVKKSDMDKLAKATGASIVSTIDEISSSDLGTAERVEQVKVGEDYMTFVTGCKNPKAVSILVRGETEHVVDEMERSITDSLHVVASALEDGAYAAGGGATAAEIAFRLRSYAQKIGGRQQLAIEKFADAIEEIPRALAENAGLDPIDILLKLRAEHAKGNKTYGINVFTGEIEDMVKNGVIEPIRVGKQAIESATEAAIMILRIDDVIATKSSSSSSNPPKSGSSSESSED", "values": [
      {"measurement": "Km", "setting": "[1]; [6]", "value": "285 ± 35", "unit": "µM"},
      {"measurement": "kcat", "setting": "[1]; [6]", "value": "1.7 ± 0.14 mol ATP/(mol active sites × min)"}
    ]},
    {"protein": "Thermoplasma acidophilum thermosome α subunit T97V, with intraloop His6-tag (natural protein, Thermoplasma acidophilum thermosome α subunit, NCBI CAC12109; site-directed mutant of construct aK144HTTherm; also called T97Vα; not shown: His6, internal (intraloop), kept) MMTGQVPILVLKEGTQREQGKNAQRNNIEAAKAIADAVRTTLGPKGMDKMLVDSIGDIIISNDGATILKEMDVEHPTAKMIVEVSKAQDTAVGDGTVTAVVLSGELLKQAETLLDQGVHPTVISNGYRLAVNEARKIIDEIAEKSTDDATLRKIALTALSGKNTGLSNDFLADLVVKAVNAVAEVRDGKTIVDTANIKVDKKNGGSVNDTQFISGIVIDKEKVHSKMPDVVKNAKIALIDSALEIKKTEIEAKVQISDPSKIQDFLNQETNTFKQMVEKIKKSGANVVLCQKGIDDVAQHYLAKEGIYAVRRVKKSDMEKLAKATGAKIVTDLDDLTPSVLGEAETVEERKIGDDRMTFVMGCKNPKAVSILIRGGTDHVVSEVERALNDAIRVVAITKEDGKFLWGGGAVEAELAMRLAKYANSVGGREQLAIEAFAKALEIIPRTLAENAGIDPINTLIKLKAEHEKGRISVGVDLDNNGVGDMKAKGVVDPLRVKTHALESAVEVATMILRIDDVIASKKSTPPSGQGGQGQGMPGGGMPEY", "values": [
      {"measurement": "stoichiometry N", "setting": "[2]", "value": 16}
    ]},
    {"protein": "Thermoplasma acidophilum thermosome α subunit D94K, with intraloop His6-tag (natural protein, Thermoplasma acidophilum thermosome α subunit, NCBI CAC12109; site-directed mutant of construct aK144HTTherm; also called D94Kα; not shown: His6, internal (intraloop), kept) MMTGQVPILVLKEGTQREQGKNAQRNNIEAAKAIADAVRTTLGPKGMDKMLVDSIGDIIISNDGATILKEMDVEHPTAKMIVEVSKAQDTAVGKGTTTAVVLSGELLKQAETLLDQGVHPTVISNGYRLAVNEARKIIDEIAEKSTDDATLRKIALTALSGKNTGLSNDFLADLVVKAVNAVAEVRDGKTIVDTANIKVDKKNGGSVNDTQFISGIVIDKEKVHSKMPDVVKNAKIALIDSALEIKKTEIEAKVQISDPSKIQDFLNQETNTFKQMVEKIKKSGANVVLCQKGIDDVAQHYLAKEGIYAVRRVKKSDMEKLAKATGAKIVTDLDDLTPSVLGEAETVEERKIGDDRMTFVMGCKNPKAVSILIRGGTDHVVSEVERALNDAIRVVAITKEDGKFLWGGGAVEAELAMRLAKYANSVGGREQLAIEAFAKALEIIPRTLAENAGIDPINTLIKLKAEHEKGRISVGVDLDNNGVGDMKAKGVVDPLRVKTHALESAVEVATMILRIDDVIASKKSTPPSGQGGQGQGMPGGGMPEY", "values": [
      {"measurement": "stoichiometry N", "setting": "[2]", "value": 16}
    ]},
    {"protein": "Ta thermosome α8β8 (Thermoplasma acidophilum DSM 1728) (protein, recombinant co-expression in E. coli BL21(DE3) Codon Plus-RIL, construct aK144HTTherm, intraloop His6-tag in each alpha subunit (kept), hexadecamer isolated on Superose 6, about 1 MDa) chain 1: MMTGQVPILVLKEGTQREQGKNAQRNNIEAAKAIADAVRTTLGPKGMDKMLVDSIGDIIISNDGATILKEMDVEHPTAKMIVEVSKAQDTAVGDGTTTAVVLSGELLKQAETLLDQGVHPTVISNGYRLAVNEARKIIDEIAEKSTDDATLRKIALTALSGKNTGLSNDFLADLVVKAVNAVAEVRDGKTIVDTANIKVDKKNGGSVNDTQFISGIVIDKEKVHSKMPDVVKNAKIALIDSALEIKKTEIEAKVQISDPSKIQDFLNQETNTFKQMVEKIKKSGANVVLCQKGIDDVAQHYLAKEGIYAVRRVKKSDMEKLAKATGAKIVTDLDDLTPSVLGEAETVEERKIGDDRMTFVMGCKNPKAVSILIRGGTDHVVSEVERALNDAIRVVAITKEDGKFLWGGGAVEAELAMRLAKYANSVGGREQLAIEAFAKALEIIPRTLAENAGIDPINTLIKLKAEHEKGRISVGVDLDNNGVGDMKAKGVVDPLRVKTHALESAVEVATMILRIDDVIASKKSTPPSGQGGQGQGMPGGGMPEY chain 2: MIAGQPIFILKEGTKRESGKDAMKENIEAAIAISNSVRSSLGPRGMDKMLVDSLGDIVITNDGVTILKEMDVEHPAAKMMVEVSKTQDSFVGDGTTTAVIIAGGLLQQAQGLINQNVHPTVISEGYRMASEEAKRVIDEISTKIGADEKALLLKMAQTSLNSKSASVAKDKLAEISYEAVKSVAELRDGKYYVDFDNIQVVKKQGGAIDDTQLINGIIVDKEKVHPGMPDVVKDAKIALLDAPLEIKKPEFDTNLRIEDPSMIQKFLAQEENMLREMVDKIKSVGANVVITQKGIDDMAQHYLSRAGIYAVRRVKKSDMDKLAKATGASIVSTIDEISSSDLGTAERVEQVKVGEDYMTFVTGCKNPKAVSILVRGETEHVVDEMERSITDSLHVVASALEDGAYAAGGGATAAEIAFRLRSYAQKIGGRQQLAIEKFADAIEEIPRALAENAGLDPIDILLKLRAEHAKGNKTYGINVFTGEIEDMVKNGVIEPIRVGKQAIESATEAAIMILRIDDVIATKSSSSSSNPPKSGSSSESSED", "values": [
      {"measurement": "Km", "setting": "[1]; biphasic, tight site", "value": "15 ± 1.65", "unit": "µM"},
      {"measurement": "kcat", "setting": "[1]; biphasic, tight site", "value": "2.15 ± 0.12 mol ATP/(mol active sites × min)"}
    ]},
    {"protein": "Thermoplasma acidophilum thermosome α subunit, wild type, with intraloop His6-tag (natural protein, Thermoplasma acidophilum thermosome α subunit, NCBI CAC12109; also called WTα; weak subunit; not shown: His6, internal (intraloop), kept) MMTGQVPILVLKEGTQREQGKNAQRNNIEAAKAIADAVRTTLGPKGMDKMLVDSIGDIIISNDGATILKEMDVEHPTAKMIVEVSKAQDTAVGDGTTTAVVLSGELLKQAETLLDQGVHPTVISNGYRLAVNEARKIIDEIAEKSTDDATLRKIALTALSGKNTGLSNDFLADLVVKAVNAVAEVRDGKTIVDTANIKVDKKNGGSVNDTQFISGIVIDKEKVHSKMPDVVKNAKIALIDSALEIKKTEIEAKVQISDPSKIQDFLNQETNTFKQMVEKIKKSGANVVLCQKGIDDVAQHYLAKEGIYAVRRVKKSDMEKLAKATGAKIVTDLDDLTPSVLGEAETVEERKIGDDRMTFVMGCKNPKAVSILIRGGTDHVVSEVERALNDAIRVVAITKEDGKFLWGGGAVEAELAMRLAKYANSVGGREQLAIEAFAKALEIIPRTLAENAGIDPINTLIKLKAEHEKGRISVGVDLDNNGVGDMKAKGVVDPLRVKTHALESAVEVATMILRIDDVIASKKSTPPSGQGGQGQGMPGGGMPEY", "values": [
      {"measurement": "stoichiometry N", "setting": "[3]", "value": 16},
      {"measurement": "Km", "setting": "[4]", "value": "140 ± 15.7", "unit": "µM"},
      {"measurement": "kcat", "setting": "[4]", "value": "0.33 ± 0.015 mol ATP/(mol active sites × min)"},
      {"measurement": "stoichiometry N", "setting": "[2]", "value": 16}
    ]}
  ]
}
